The text below walks through data of the supplement of paper PMC9170038.

The subject of the data set is MS2 coat protein. As to the kind of experiment: apparent KD of MS2 coat protein; designed switch direction (-1 OFF switch, 1 ON switch): -1; higher = weaker reporter binding. The method in brief: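 For each design, the apparent KD is the median over clusters of curves fitted to normalised cluster fluorescence. Clusters held RNA switches with common flanks, transcribed on Illumina chips by stalled E. coli RNA polymerase. These were titrated with SNAP-549-labelled MS2 coat protein, doubling from 0.7 or 1.5 nM to 3 µM, without input, with 200 uM small-molecule ligand, or with an oligonucleotide input.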

Setting [1] is: input ligand: microRNA oligo, concentration not stated.
The mark [2] stands for this setting: Eterna round: R95, input ligand: microRNA oligo, concentration not stated.
[3] abbreviates: Eterna round: R95, input ligand: FMN 200 uM.
[4] abbreviates: Eterna round: R95, input ligand: none.

Turning to “UGCUACAUGAGGAUCACCCAUGUAAUGUGGGAUUCGUUAGGACAGGAUAUGAUUGUAUAGUUUUUUCAGAAGGGUCAUUACUUU [JR_ExcNG3_Sub010] (Eterna round: R96, puzzle: Exclusion NG 3)”, the “apparent KD of MS2 coat protein” value under setting [1] amounted to 62.9 nM.

As to “UGCUACGGAGGAUAUACAUGAGGAUCACCCAUGUGAUAGAUUAUCGCGAGAGCGUAAUGUAGAAGGCCGUAGCU [jl-ex3-4.12 jl mod] (Eterna round: R97, puzzle: Exclusion 3)”, the “apparent KD of MS2 coat protein” value is, setting by setting: (input ligand: FMN 200 uM) 506 nM; (input ligand: none) 56 nM.

As for “UGGGAACGAGGAUAUCGAUGGUGGAACAUGAGGAUCACCCAUGUAUGAGAUAGUGUAGUUCGAGAAGGCGUUAAGU [JR_E5_Sub053] (puzzle: Exclusion 5)”, the “apparent KD of MS2 coat protein” value under setting [2] was found to be 54 nM.

In the case of “UGUAACCUAGGAUAUACAUGAGGAUCACCCAUGUAAUGUAGUAUAGUGUGUGUAAGGUGUAGAAGGAGGGAUGU [LRO-Excl05-22-Smart Aleck] (Eterna round: R97, puzzle: Exclusion 3)”, the “apparent KD of MS2 coat protein” value runs as follows: (input ligand: FMN 200 uM) 9.76 nM; (input ligand: none) 62.9 nM.

For “UGUAAGCUAGGAUAUGCUUUGGGAAAGCAUUCCUUCGAUAAACUUGAGGAUCACCCAAGUAGAAGGAGCUUACG [salish99_ex2_r4_007] (Eterna round: R97, puzzle: Exclusion 2)”, the “apparent KD of MS2 coat protein” value is, setting by setting: (input ligand: FMN 200 uM) 14.1 nM; (input ligand: none) 12.8 nM.

In the case of “UGUACCAUAGGAUAUACAUGAGGAUCACCCAUGUUAAUACGAUAUGUAAUGGUUACUUGUAGAAGGAUGAAAAG [Eternabot (L1) Solution 29] (Eterna round: R97, puzzle: Exclusion 3)”, the “apparent KD of MS2 coat protein” value reads like this: (input ligand: FMN 200 uM) 14.9 nM; (input ligand: none) 11 nM.

For “UGUACUAUGCGUGCUGACAUGCGUAGUGCAGCAGGUGUAACAUGAGGAUCACCCAUGUCCUCAUUUGCUCGUCUUAU [SL-sv3-2.06 JL mod] (puzzle: Sensor v3, turn-off variant 2)”, the “apparent KD of MS2 coat protein” value under setting [3] is 194 nM, the “apparent KD of MS2 coat protein” value under setting [2] was 176 nM and the “apparent KD of MS2 coat protein” value under setting [4] is 273 nM.

Turning to “UGUCAGAUGGUAGGAUAUCUAUAUCGAGUGACCCUUUCAUAACAUGAGGAUCACCCAUGUCGGUGGGAGAAGGGCCGUAUGGUG [salish99_ExNG02_R04_029] (Eterna round: R96, puzzle: Exclusion NG 2)”, the “apparent KD of MS2 coat protein” value is 28.6 nM (input ligand: FMN 200 uM), 23.2 nM under setting [1] and 28.5 nM (input ligand: none).

As to “UGUGAGCAUGUCAGGAUAUGCAUCACAGUUAGGAUGUAGAAGGGACAUGAGGAUCACCCAUGUAGCUUCAGGUA [BmEX4 A.20] (Eterna round: R97, puzzle: Brourd's mod of Exclusion 4)”, the “apparent KD of MS2 coat protein” value amounted to 17.7 nM (input ligand: FMN 200 uM) and 14.5 nM (input ligand: none).

For “UGUGCGUAUGUGAGGAUAUGCUGGUCCUUGGAUCAGCAGAAGGCACAUGAGGAUCACCCAUGUGGUGUCGUACA [salish99_Bmod_Ex4_007] (puzzle: Brourd's mod of Exclusion 4)”, the “apparent KD of MS2 coat protein” value turned out to be 29.2 nM under setting [3], 158 nM under setting [2] and 307 nM under setting [4].

Turning to “UGUGCGUAUGUGAGGAUAUGCUGGUCCUUGGAUCGGCAGAAGGCACAUGAGGAUCACCCAUGUGGUGUCGUUCC [salish99_Bmod_ex4_095] (puzzle: Brourd's mod of Exclusion 4)”, the “apparent KD of MS2 coat protein” value under setting [2] turned out to be 102 nM.

“UGUGCGUAUGUGAGGAUAUGCUGGUCCUUGGCUCGGCAGAAGGCACAUGAGGAUCACCCAUGUGGUGUCGUACC [salish99_Bmod_ex4_060] (puzzle: Brourd's mod of Exclusion 4)”: the “apparent KD of MS2 coat protein” value under setting [2] came to 33.1 nM.

As for “UGUGCGUCAGGAUAUUCUACUUAUUACAUGAGGAUCACCCAUGUGAAUGUACAAGGGUGUGAAGAAGGGACUUGUC [LRO-Excl5-05-mod A17d by Omei] (Eterna round: R97, puzzle: Exclusion 5)”, the “apparent KD of MS2 coat protein” value (input ligand: FMN 200 uM) was 194 nM and the “apparent KD of MS2 coat protein” value (input ligand: none) stood at 798 nM.

As to “UGUGCUCUAGGAUAUGCGUAAGCUGAUACGUCAGCAGGUCUACAUGAGGAUCACCCAUGUAGAAGGAGAGUACU [jl-ex2-4.00] (Eterna round: R97, puzzle: Exclusion 2)”, the “apparent KD of MS2 coat protein” value (input ligand: FMN 200 uM) is 18.6 nM and the “apparent KD of MS2 coat protein” value (input ligand: none) came out at 20.8 nM.

Consider “UGUGUGAGACAGGAUAUGCCGGUUGUGUUGCUGGUAGAAGGGUCUACAUGAGGAUCACCCAUGUGGCCGGUUGG [Ex6 #80] (Eterna round: R97, puzzle: Exclusion 6)”, for which the “apparent KD of MS2 coat protein” value is, setting by setting: (input ligand: FMN 200 uM) 19.1 nM; (input ligand: none) 17.3 nM.

For the sequence “UGUUCGUCAGGAUAUUCUACUUAUUACAUGAGGAUCACCCAUGUGUAUGUACAAGGGUGUGAAGAAGGGACUUGUC [LRO-Excl5-07-mod A17d by Omei] (Eterna round: R97, puzzle: Exclusion 5)”, the “apparent KD of MS2 coat protein” value is, setting by setting: (input ligand: FMN 200 uM) 331 nM; (input ligand: none) 1240 nM.

On to “UGUUGUCGCGCAGGAUAUGAGGAUCACCCAUAUACAGGAUAUGAAAAGAAGGGUCUGAGGAUCACCCAGAAGGGCGGGACAACU [pwkr exNG2 2xF5 2xFMN.27] (Eterna round: R96, puzzle: Exclusion NG 2)”, for which the “apparent KD of MS2 coat protein” value is, setting by setting: (input ligand: FMN 200 uM) 1340 nM; under setting [1], 99.9 nM; (input ligand: none) 135 nM.

With “UUAAAAUAUGUAGGAUAUGCGUGGCGAAGCUAUGCAGAAGGACAUGAGGAUCACCCAUGUUCCUGCGUCCGCGUACGGAUGCAA [JL Eng1 1.21 mod 3] (Eterna round: R96, puzzle: Exclusion NG 1)”, the “apparent KD of MS2 coat protein” value by setting is: (input ligand: FMN 200 uM) 14.8 nM; under setting [1], 9.15 nM; (input ligand: none) 12.4 nM.

With “UUAAAUCAUGUAGGAUAUGCGUGGCGAAGCUAUGCAGAAGGACAUGAGGAUCACCCAUGUGCUGCGGUCUGCGUACAGAUCGCA [JL ENG1 1.06] (Eterna round: R96, puzzle: Exclusion NG 1)”, the “apparent KD of MS2 coat protein” value runs as follows: (input ligand: FMN 200 uM) 87.6 nM; under setting [1], 259 nM; (input ligand: none) 307 nM.

With “UUAAAUCAUGUAGGAUAUGCGUGGCGAAGCUAUGCAGAAGGACAUGAGGAUCACCCAUGUUCUGCGGUCUGCGUACAGAUCGCA [JL ENG1 1.05] (Eterna round: R96, puzzle: Exclusion NG 1)”, the “apparent KD of MS2 coat protein” value (input ligand: FMN 200 uM) worked out at 502 nM, the “apparent KD of MS2 coat protein” value under setting [1] was 29.1 nM and the “apparent KD of MS2 coat protein” value (input ligand: none) stood at 42.7 nM.

As to “UUAAAUCAUGUAGGAUAUGCGUGGCGAAGCUAUGCAGAAGGACAUGAGGAUCACCCAUGUUCUUGCGUCUGCGUACAGAUGCGG [Exclusion NG 1] (Eterna round: R96, puzzle: Exclusion NG 1)”, the “apparent KD of MS2 coat protein” value is, setting by setting: (input ligand: FMN 200 uM) 175 nM; under setting [1], 20 nM; (input ligand: none) 25.9 nM.

With “UUAACGUGGGCGUCCCACAGCAAGCUUUUUGCUCGUUUAACAUGAGGAUCACCCAUGUCGCUGCGGGAUCCCUAUGA [Abeisat] (puzzle: Sensor v3, turn-off variant 2)”, the “apparent KD of MS2 coat protein” value under setting [3] stood at 13.5 nM, the “apparent KD of MS2 coat protein” value under setting [2] is 13.1 nM and the “apparent KD of MS2 coat protein” value under setting [4] was found to be 11.6 nM.

On to “UUAAUGGUUGUGAGGAUAUCGGAUAGAUAGAUAUUCGAGAAGGCACAUGAGGAUCACCCAUGUGUGAUUAGAAA [JR_BMEx4_Sub049] (Eterna round: R97, puzzle: Brourd's mod of Exclusion 4)”, for which the “apparent KD of MS2 coat protein” value came to 260 nM (input ligand: FMN 200 uM) and 24.6 nM (input ligand: none).

With “UUAAUUAAUGUGAGGAUAUCUAGAGCCUCGGCUCUAGAGAAGGCACAUGAGGAUCACCCAUGUCUCAAUUAAUU [BmEx4/2-E2] (Eterna round: R97, puzzle: Brourd's mod of Exclusion 4)”, the “apparent KD of MS2 coat protein” value (input ligand: FMN 200 uM) came to 33.9 nM and the “apparent KD of MS2 coat protein” value (input ligand: none) came to 23.6 nM.

With “UUAAUUCGGAUUCUUGAAAUACAUGAGGAUCACCCAUGUUCACAGGAUAUUGAUUAAGUUAGUAACAAGAAGGGUGUAACAUAA [JR_ExcNG3_Sub035] (Eterna round: R96, puzzle: Exclusion NG 3)”, the “apparent KD of MS2 coat protein” value is, setting by setting: (input ligand: FMN 200 uM) 57.8 nM; under setting [1], 17.6 nM; (input ligand: none) 22.9 nM.

In the case of “UUAAUUUUAGGAUAUACAUGAGGAUCACCCAUGUGGCGGGCCAUGAUGGAGCGUACCAGUAGAAGGAAGAACAG [Eternabot (L2) Solution 43] (Eterna round: R97, puzzle: Exclusion 3)”, the “apparent KD of MS2 coat protein” value is 69.2 nM (input ligand: FMN 200 uM) and 73.2 nM (input ligand: none).

Turning to “UUACGGAUAGAGGAUAUAUUAAGGAAGGUUUCGAUAGAAGGCUAGACAUGAGGAUCACCCAUGUAUAUUGGGAU [JR_Ex6_Sub073] (Eterna round: R97, puzzle: Exclusion 6)”, the “apparent KD of MS2 coat protein” value was 164 nM (input ligand: FMN 200 uM) and 97.9 nM (input ligand: none).

As to “UUAGCGUAAGUAAGGAUAUGCUGGUCGAAAGACCAGCAGAAGGUACAUGAGGAUCACCCAUGUUGAUUCGUUGC [Mod of JL 13 - Jieux - Brourd's mod of Exclusion 4] (Eterna round: R97, puzzle: Brourd's mod of Exclusion 4)”, the “apparent KD of MS2 coat protein” value is, setting by setting: (input ligand: FMN 200 uM) 284 nM; (input ligand: none) 39.7 nM.

“UUAGUGUAAGGAUAUCCUAUUACGAAGUAGCAACGGUAGAGGGAGAAGGUACAUGAGGAUCACCCAUGUGUCGC [Eternabot (L2) Solution 38] (Eterna round: R97, puzzle: Exclusion 4)”: the “apparent KD of MS2 coat protein” value (input ligand: FMN 200 uM) came out at 26.3 nM and the “apparent KD of MS2 coat protein” value (input ligand: none) was determined as 24.5 nM.

On to “UUAUAAACAUAGGAUAUCGAAUAAAUUAUUUAACGAGAAGGAUGAACAUGAGGAUCACCCAUGUGGUAUCAUGG [Mat - Exclusion 6 - JL Mod - D30] (puzzle: Exclusion 6)”, for which the “apparent KD of MS2 coat protein” value is, setting by setting: under setting [3], 170 nM; under setting [2], 228 nM; under setting [4], 398 nM.
